Target: CD3 on Jurkat cells
Experiment: flow cytometry, culture supernatant on Jurkat cells (negative control sdAb)

Substance: NC-sdAb(相同形式的非相关性sdAb) (VHH)
- MFI: 115 MFI

Source: CN106117360A
